US20080171037A1, “Apo-3 ligand polypeptide” (Genentech, Inc., priority 1997, published 2008)
Entries after “also recorded” stand apart in the source; their conditions may differ.

What was measured:
[1] = test system: MCF-7 breast carcinoma cells; experiment: Apoptosis in MCF-7 breast carcinoma cells (microscopy, Hoechst dye); type: cell-based, human; details: MCF-7 cells pre-treated with CHX 10 μg/ml, ligand 2 μg/ml, 14 hours, FIG. 9A
Method: Human MCF-7 breast carcinoma cells (ATCC HTB 22) were pre-treated for 1 hour with cyclohexamide (CHX) (10 μg/ml) and incubated for 14 hours with soluble Apo-3 Ligand (2 μg/ml; prepared as described in Example 3 above) alone or together with zVAD-fmk (Research Biochemicals) (100 nM). The cells were then stained with Hoechst dye and photographed by phase (FIG. 9A, left) and by fluorescence (FIG. 9A, right) microscopy. In FIG. 9A, arrowheads indicate some of the apoptotic cells (left) and their condensed nuclei (right).
In a separate experiment, the MCF-7 cells were pre-treated for 1 hour with buffer or CHX, incubated for an additional 14 hours with the indicated concentrations of soluble Apo-3 Ligand (see FIG. 9B), and apoptotic or live cells were score by microscopy.

[2] = test system: HeLa S3 cervical carcinoma cells; experiment: Apoptosis in HeLa S3 cells (DNA fragmentation analysis); type: cell-based, human; details: HeLa S3 cells pre-treated with CHX, FIG. 9C
Method: HeLa S3 cervical carcinoma cells (ATCC CCL 2.2) were similarly pre-treated with CHX and then incubated with soluble Apo-3 Ligand (prepared as described in Example 3 above) alone or together with zVAD-fmk or DEVD-fmk (Research Biochemicals) (100 nM). The treated cells were then subjected to DNA fragmentation analysis.

NF-κB [3] = experiment: NF-κB activation, electrophoretic mobility shift assay, HeLa cells; type: cell-based, human; details: FIG. 5A
Method: In a first assay, HeLa cells (ATCC CCL 22) were treated with His-tagged soluble Apo-3 Ligand (described in Example 3) (10 μg/ml) in duplicate or with vehicle for 30 minutes. His-tagged Apo-2 ligand (see WO 97/25428) or TNF-alpha (Pennica et al., Nature, 312:724-729 (1984)) were assayed for comparison. Nuclear extracts were prepared and 1 μg of nuclear protein was reacted with a ^32P-labelled NF-κB-specific synthetic oligonucleotide probe

HeLa cells = experiment: Apoptosis in HeLa cells transfected with full length Apo-3 Ligand (FACS, annexin V binding); type: cell-based, human; details: HeLa cells transfected with plasmid encoding amino acids 1 to 249, CD4-positive cells, FIG. 6
Method: A pRK5 plasmid (see EP 307,247) encoding Apo-3 Ligand polypeptide (amino acids 1 to 249 of FIG. 1), or empty pRK5 plasmid, was transiently transfected along with a pRK5 plasmid encoding human CD4 as a marker for transfection into human HeLa cells by electroporation, and the cells were plated in tissue culture dishes. Four hours later, the caspase inhibitor z-VAD-fmk (Research Biochemicals) (200 μM) was added to some of the dishes. Twenty hours later, apoptosis was determined by FACS analysis of cells positive for the CD4 marker by measuring binding of fluorescein isothiocyanate (FITC)-conjugated annexin V (Brand Applications) (see WO 97/25428).

DR5 = target: T1, DR5 (Homo sapiens, UniProt O14763); experiment: Co-immunoprecipitation binding assay with DR5 ECD; details: ligand and receptor 1 μg/ml, FIG. 8A
T1 construct: the ECD of the Apo-2L receptor, DR5; made in house
T1 sequence (O14763 56-184 limits assumed): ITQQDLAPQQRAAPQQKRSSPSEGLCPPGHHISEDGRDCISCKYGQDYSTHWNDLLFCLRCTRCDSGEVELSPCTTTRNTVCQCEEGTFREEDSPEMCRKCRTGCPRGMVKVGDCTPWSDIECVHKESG
Method: (§1) A Flag-epitope tagged soluble Apo-3 was produced (as described for DR5 in Sheridan et al., Science, 277:818 (1997)) and tested in a co-immunoprecipitation assay to examine its ability to associate with a histidine tagged soluble Apo-3 Ligand (see Example 3 above). […] The respective ligands (1 μg/ml) and receptors (1 μg/ml) were incubated for 1 hour at room temperature. The reaction mixtures were subjected to precipitation with anti-Flag antibody conjugated to sepharose beads (Kodak) (FIG. 8A, left) or nickel-sepharose (Qiagen) (FIG. 8A, right) by overnight incubation at 4° C. according to manufacturer's instructions and resolved by gel electrophoresis. The ligands were visualized by Western blot analysis with nickel-conjugated horseradish peroxidase. In FIG. 8A, molecular weight markers (kDa) are indicated on the left.

[4] = test system: Jun N-terminal kinase (JNK/SAPK); experiment: JNK/SAPK activity in 293 cells transfected with full length Apo-3 Ligand; type: cell-based, human; details: 293 cells transfected, FIG. 7
Method: The pRK5 plasmid encoding Apo-3 Ligand polypeptide or empty pRK5 plasmid (see Example 6 above) was transiently transfected into human 293 cells (ATCC CCL 1573) by calcium phosphate precipitation. Four hours later, one set of cells was treated with z-VAD-fmk (Research Biochemicals) (200 μM). Twenty hours later, the cells were harvested and analyzed for activity of Jun N-terminal kinase (JNK; also called stress activated protein kinase or SAPK) using a commercially available JNK/SAPK assay kit (New England Biolabs), and according to the manufacturer's instructions.

Apo-3 = target: T2, Apo-3 (Homo sapiens, UniProt Q93038); experiment: Co-immunoprecipitation binding assay with Flag-tagged soluble Apo-3; details: ligand and receptor 1 μg/ml, FIG. 8A
T2 construct: made in house
T2 sequence (Q93038 25-199 limits assumed): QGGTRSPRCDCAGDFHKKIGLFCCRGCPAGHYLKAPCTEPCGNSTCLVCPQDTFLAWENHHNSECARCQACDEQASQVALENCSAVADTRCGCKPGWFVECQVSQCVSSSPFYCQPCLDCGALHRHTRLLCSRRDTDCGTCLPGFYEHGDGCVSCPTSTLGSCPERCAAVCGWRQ
Method: A binding assay was conducted to determine if Apo-3 Ligand binds Apo-3 receptor. Apo-3 receptor was described by Marsters et al., Curr. Biol., 6:750 (1996). Other investigators have also referred to Apo-3 as DR3 [Chinnayian et al., Science, 274:990 (1996)], Wsl-1 [Kitson et al., Nature, 384:372 (1996)], TRAMP [Bodmer et al., Immunity, 6:79 (1997)], or LARD [Screaton et al., PNAS, 94:4615-4619 (1997)].
as §1

NF-κB [5] = experiment: NF-κB activation, electrophoretic mobility shift assay, 293 cells; type: cell-based, human; details: 3 hours, FIG. 5B and 5C
MCF-7 cells = experiment: Apoptosis by soluble Apo-3 Ligand in MCF-7 cells transfected with caspase inhibitors or FADD mutant; type: cell-based, human; details: CHX 1 hour, soluble Apo-3 Ligand 2 μg/ml 14 hours, FIG. 9D
Method: MCF-7 cells were transfected by lipofection with empty vector (pRK5; EP 307,247) or with expression plasmid encoding the caspase inhibitors, p35 or CrmA, or a dominant-negative FADD mutant (Tularik, South San Francisco, Calif.). Sixteen hours later, the cells were pre-treated with CHX for 1 hour, and then treated for an additional 14 hours with soluble Apo-3 Ligand (2 μg/ml).

B1: soluble Apo-3 Ligand (protein)
chain: MGHHHHHHHHHHSSGHIDDDDKHMRASLSAQEPAQEELVAEEDQDPSELNPQTEESQDPAPFLNRLVRPRRSAPKGRKTRARRAIAAHYEVHPRPGQDGAQAGVDGTVSGWEEARINSSSPLRYNRQIGEFIVTRAGLYYLYCQVHFDEGKAVYLKLDLLVDGVLALRCLEEFSATAASSLGPQLRLCQVSGLLALRPGSSLRIRTLPWAHLKAAPFLTYFGLFQVH
**Q.** Which “apoptosis (morphological changes and chromatin condensation)” value [1] does the source give for B1 here?
**A.** The value was “induced marked apoptosis”.

**Q.** What about the “apoptosis (internucleosomal DNA fragmentation)” value [2] of the same molecule?
**A.** Its value is “induced marked apoptosis”.

**Q.** What about the NF-κB activation (NF-κB [3]; 10 μg/ml, 30 minutes) of the same molecule?
**A.** The NF-κB activation was “induced significant NF-κB activation”.

**Q.** What about the “level of NF-κB activation compared with Apo-2 ligand” value (NF-κB [3]) of the same molecule?
**A.** Its value is “comparable”.

**Q.** What about the “level of NF-κB activation compared with TNF-alpha” value (NF-κB [3]) of the same molecule?
**A.** Its value is “weaker”.

B2: Apo-3 Ligand: Novel human TNF family polypeptide of 249 amino acids encoded by clone DNA30879-1152 (ATCC 209358) (protein)
chain: B1 chain
**Q.** What does the source list for B2?
**A.** level of apoptosis compared with pRK5 (control) (HeLa cells): about a doubling of the level of apoptosis; apoptosis (morphological changes and chromatin condensation) [1]: induced apoptosis; binding to DR5 (DR5): not to DR5; level of JNK/SAPK activity compared with pRK5 control [4]: detectable increase; also recorded: increased JNK/SAPK activity; binding to Apo-3 (Apo-3): bound to Apo-3; binding to Apo-3 (Apo-3; listed as Apo-3L): specifically binds to Apo-3; NF-κB activation (NF-κB [5]): NF-κB activation

B3: p35: virus-derived caspase inhibitor, expressed from a transfected plasmid (protein, UniProt P08160 1-299, looked up)
Early 35 kDa protein: MCVIFPVEIDVSQTIIRDCQVDKQTRELVYINKIMNTQLTKPVLMMFNISGPIRSVTRKNNNLRDRIKSKVDEQFDQLERDYSDQMDGFHDSIKYFKDEHYSVSCQNGSVLKSKFAKILKSHDYTDKKSIEAYEKYCLPKLVDERNDYYVAVCVLKPGFENGSNQVLSFEYNPIGNKVIVPFAHEINDTGLYEYDVVAYVDSVQFDGEQFEEFVQSLILPSSFKNSEKVLYYNEASKNKSMIYKALEFTTESSWGKSEKYNWKIFCNGFIYDKKSKVLYVKLHNVTSALNKNVILNTIK
**Q.** How did the “effect of transfection on induction of apoptosis by Apo-3 Ligand” value (MCF-7 cells) turn out when B3 was run?
**A.** The value was “blocked induction of apoptosis”.
